Test results: the DeepSol protein solubility set

Test: soluble on expression in E. coli; label from the status in PepcDB or PDB records

| Sequence | soluble on expression in E. coli |
| --- | --- |
| MGSDKIHHHHHHMSIVEEQAQAGAASTSGSLLDDIMAQARISPVDEGYSVAKQGIAALVANILDSGNAAEPVNKALVDSMIVELDKKLSKQIDVILHAKELQELESSWRSLKLLIDRTDFRENIKLLVLHATKEELLEDFEFAPEISQSGFYKHVYSSGYGQFGGQPIGGVIGDYAMTQSSPDIKLMQYVSAVGAMAHAPFISSVAPTFFGVDRFTDLPSIKDLKSVFEGPAYTKWRSLRESEDGRYLGLTAPRFLARLPYDPVENPIKGFNYKEDISTDHEHYLWGNTAYLMGTALTDSFAKYRWCPNIIGPQSGGAITDLPVHVYQAMGQLQAKIPTEVLITDRREYEMAEEGFITLTMRKDSDNAAFFSANSVQKPKVFPNTKEGKEAETNYKLGTQLPYMFIINRLAHYIKVLQREQIGSWKERQDLERELNTWIKQYIADQENPPADVRSRRPLRAAQIKVLDVEGEPGWYQVTMSVRPHFKYMGANFELSLVGRLDKE | not soluble |
| MDMSLAEDAQETMATLAPDRFFFMSPYRSFTTSGCFARYTEPAVAGDSPDSPFQQKLRQQFAEAKSQGIANPILVGAIPFDTRQPSSLFIPMAWQSFSRQQKQRTARYFTDHQSLTVTARKAIPEQDAFEAMVARAAMLTATPDVDKVVLSRLIDITTDVAVDSGALLERLVAQNPVSYNFHVPLADGGVLLGASPELLLRKEGERFSSLPLAGSARRQPDDVLDREAGNRLLASQKDRHEHELVTQAMKQILRDRSTELQLPSSPQLITTPTLWHLGTPFEGKANAGENALTLACLLHPTPALSGFPHQVAKKLIAELEPFDRELFGGIVGWCDAEGNGEWVVTIRCAKLHGNQVRLFAGAGIVPASSPVGEWRETGVKLSTMLNVFGLH | soluble |
| SNPQIRNPMKAMYPGTFYFQFKNLWEANDRDETWLCFTVEGIKRRSVVSWKTGVFRNQVDSETHCHAERCFLSWFCDDILSPNTKYQVTWYTSWSPCPDCAGEVAEFLARHSNVNLTIFTARLYYFQYPCYQEGLRSLSQEGVAVEIMDYEDFKYCWENFVYNDNEPFKPWKGLKTNFRLLKRRLRESLQ | soluble |
| MGSDKIHHHHHHMIILFGNQKGGCGKTTNCIQFANYLVEKGKEVLVLDLDFQRSLSDRRKEDIATYDNEPKYEVIQTDISNVAKIISDFTKVEQGNLLIDLPGKIDDDALGTILKAADIIICPFKYDKFTMDSTGFFIQVLQYLNVKAKIFFLPNNMRAAVRYETKEQVVDILKQVGFVTDEIPASVAMERINTLTISNECIDKVKNAYDYIIQEGAIK | not soluble |
| MAINLELPRKLQAIIVKTHQGAAEMMRPIARKYDLKEHAYPVELDTLINLFEGAAESFNFAGAHSLRDEDEGKDENHNGANMAAVVQTMEASWGDVAMMLSLPYQGLGNAAISAVATDEQLERLGKVWAAMAITEPEFGSDSAAVSTTATLDGDEYVINGEKIFVTAGSRATHIVVWATLDKSLGRPAIKSFIVPREHPGVTVERLEHKLGIKGSDTAVIRFDNARIPKGNLLGNPEIEVGKGFAGVMETFDNTRPIVAAMAVGIGRAALEEIRSVLTGAGVEISYDKPSHTQSAAAAEFLRMEADWEASYLLSLRAAWQADNNIPNSKEASMSKAKAGRMASDVTCKTVELAGTTGYSEQSLLEKWARDSKILDIFEGTQQIQQLVVARRLLGLSSSELK | not soluble |
| MGIGNENKGFITASADALINWVRTGSLWPVTTGLACCAVEMMHAGAARYDLDRFGIVFRPSPRQSDVLIVAGTLCNKMAPALRQVYDQMPDPKWVISMGSCANGGGYYHYSYSVVRGCDRIVPVDIYVPGCPPTAEALVYGIIQLQNKIIRKDTIARK | not soluble |
| DNNRWIPIKPGTDSALVLGMIQWIIENQRYNKTFLAQPGANAMKRAGTAHWCNATHLVISDEQHPRNGTFLRASDLNLPFEGEALSDSDPYVIVEEQSGQFGVHTQTEEATLFVDKTVSLASGKVRVKSSLQRLKEEAFKYSLAFYSQQCEIPVEQIAELAKRFTSCGTKAVVDTHGGNMHTNGFYNSFTIMMLNALIGNINMKGGAMAKAGGYPTSAAGPRYDFTKFAGKVGPKGVFLSRSKFPYHKTSEYKRRVEAGKSPYPTRAPWYPFAAPLLTEHLSAAIDGYPYRVKAWINHMANPMYGVPGLKTLLEDKLKDPKQLGLIVSVDAFINETTALSDYIVPDTVTYESWGMATPWHDVPVKTITARWPIVEARTEKTADGRSICLENFLIDVAKKMQLGGFGDNAIQDAQGNWHALHSAEDFYLRSAANLAYVKGGVPEVSAEDIAWSGLERLMPAMQSTLTADEMKRVAFIFARGGRFENATEAYQGEQMKHKWTRPVAIWNERVGSARNTMTGDFYTGCPTWHPQKLADGTPMEEQFPSSEWPFSLTNFKSNIHSAVSNLSPRLNSIKGVNPVYIHPIDAERAGIKTGDEFVIETPSASTKALAMIVSGIRPGTLGFEHGFGHTELGQRSHWIGDKQQPVKTRSQDGVNINDIGLIDPTREGKGVLLDWVVGAAARQSLPAKIRKA | not soluble |
| MKPPFEQALGIIRQLKRHGYEAYFVGGAVRDLLIGRPIGDVDIATSALPEEVMRLFPKTIDVGSKHGTVVVVHEGTAYEVTTFRTDGDYEDHRRPESVTFVRSLEEDLKRRDFTMNAIAMDERGTIIDPFGGQEAIERRLICTVGAADERFREDALRMMRAVRFVSQLGFALAEDTKSAIVQNAPLMAHISVERMTMEMEKLLAGPFVAEALPLLADTGLFAYLPGLAAKEQLLRSAAAFRWPWLTKREERWALLCRALDVKDIRPFLRAWKLPNKVIDEAGAILAALDDVPRPEAWTNEQLFSAGLERALSVEAVRAALCGAPSEPHHEELRRRFAALPIKTKGELAVNGKDVIRWAGKPAGPWVKETLDAIWRAVVSSEVENEKERIYAWLMERNRTHEKNC | not soluble |
| AHHHHHHGSEIYEGKAKKMIPLDEDKFIMEFKDDATAFDGVKKAKFVGKGWLNAQISAKLFKLLEDHGIKTHFIGVAGGNRLIVERLEMYPIEVVVRNVVAGSLKKRLPLPEGYELPEPIVELYYKSDELHDPMINYYHARILGISEEEIKEMERIALKVNEILKKFFREKGIILVDFKLEFGKNKKGEIVLADEISPDTCRFWDVETKKSLDKDVFRFDKGDLIEAYKELYKRLIGEEPQI | not soluble |
| MGSDKIHHHHHHMKGMDIMNSAMILEISWFQEHGIMRRAVNRGLARKSSHPSRIGIDEKYYGKHHRYITLVFNHDDHSVEFISLDRKQESLDLYYRSIGEEASGSIEAAPMDMWDPFIVSTKSNVTDAESKIVFDRFHVMKHMNMALDDVRWMESRMAEYKEMFRKTRCLWLYSPENLPDKYGERYEILKESDLKTARVYAIKENLRNLWNCSGEDEARSF | not soluble |
| MGVFNYEIETTSVIPAARLFKAFILDGDNLVPKVAPQAISSVENIEGNGGPGTIKKINFPEGFPFKYVKDRVDEVDHTNFKYNYSVIEGGPVGDTLEKISNEIKIVATPDGGCVLKISNKYHTKGNHEVKAEQVKASKEMGETLLRAVESYLLAHSDAYN | soluble |
| SEAKTLGTVTPRKPVLSVSARKIKDNAADWHNLILKWETLNDAGFTTANNIANLKISLLNKDKIELDSSSPASKENEEKVCLEYNEELEKLCEELQATLDGLTKIQVKMEKLSSTTKGICELENYHYGEESKRPPLFHTWPTTHFYEVSHKLLEMYRKELLLKRTVAKELAHTGDPDLTLSYLSMWLHQPYVESDSRLHLESMLLETGHRAL | soluble |
| MIFSDWPWRHWRQVRGEAIALRLNDEQLNWRELCARVDELASGFAVQGVVEDSGVMLRAWNTPQTLLAWLALLQCGARVLPVNPQLPQPLLEELLPNLTLQFALVPDGENTFPALTSLHIQRVEGAHVATWQPTRLCSMTLTSGSTGLPKAAVHTYQAHLASAEGVLSLIPFGDHDDWLLSLPLFHVSGQGIMWRWLYAGARMTVRDKQPLEQMLAGCTHASLVPTQLWRLLVNRSSVSLKAVLLGGAAIPVELTEQAREQGIRCFCGYGLTEFASTVCAKEADGLADVGSPLPGREVKIVNNEVWLRAASMAEGYWRNGQLVSLVNDEGWYATRDRGEMHNGKLTIVGRLDNLFFSGGEGIQTEEVERVIAAHPAVLQVFIVPVADKEFGHRPVAVMEYDHESVDLSEWVKDKLARFQQPVRWLTLPPELKNGGIKISRQALKEWVQRQQ | not soluble |
| MNAPDKTGTDRRAVPAAVDLDALIRAEHRDPFSILGPHDDGKGGQYVRAYLPAALSVRLLARDDGRELAELHMSDVPGFFVGHLEQPQPYLLKINWAGGEQITEDPYSYGPLLG | not soluble |
| MGSDKIHHHHHHMQAEKLMQVKDAVLKLRQQLRAGQIYQSLPSRMATLIKQLPSTVTTTVTIPSDEEVLPLIATLHEQLKKGTLTAMSDDQIKLLMAHVGSLNPLVRDQGVYYLLNEALQQQVLTPEQLGDIFDQLIQDQMLFAHIDEPQNDAIYQRSFAILLLSVLLYADHAGLKFMTPARLDLVVEQMTVYILLEKDTRGFVGTTGWAHAYTHIGNILDELADESQLARADKLLLLAALIARYQKLTTPLIFGEPERLSTYLTLITNKHELYCDYLLTAMKDWHQQLMMHTRPASEAEWTQIFNRNRLLEALALHDDLPTAVVDYLDDELEFLG | not soluble |
| MKKALFLVGLVFTAGVISSCGGVSSQRTYEGAAVGAAVGAAAGVLLDKENRWRGGVIGAALGAILGGTITEIAQRAAKEAAQNNKPVVYRAEDGSQMVRAEPVEKRGNCTLVKTKYYQNGKLVKVEEKEVCE | not soluble |
| MKLKLFFHIVLLCFSLPIWAMKTVDVTASPKMDDQARMNLAQEFANKQQWIDVFNIMYPMALEGNITAQSNLGMLYNLGRGTVRDYEKAYWWFSEAAEKGSVKGLNNLGVMYLRGDYVKQNTEQAIKLFERTAQAKDTDAMMMLSNIYRLQNQPEKIIGMAEESRLEHHHHHH | not soluble |
| MGSDKIHHHHHHACDDNKDEFLDEFSTILSFRNCDEIEVEVYNTGENGEYQLIVNKSGAQLGTVTRASIDVMDKALLEIYNEQNGKDYQLYPEDCYVFNGDKQIEFGPNDTYQTRSVTLITDKILESNQQEGNFVIPFILQNSADSINAERKYVFLKPAVIVPNVAFEKTGYNLNIISDAMDANEIELNLPAVFSVDNKWNFSCTLEPDESLLTEYNEKNGVDYTMLSEEAYTLSNEGKILFTAGSKSASLTVTVKRNKLSYGNYVLPLKMTQCSSPYFEINPNKQSCLFGISYVPDESKLHPVTLSRGMTAIHPNREVEGKIDYMFDGNPDTYYHSDYLEEPGLPHWIQLNLDEPHTALMFEYQVRHNNNNGAPQRISVLGSMDGITFSKIMTIMEGFPTATKGTYKSPVLVGKEFKHIRLVVESTPAGNSFALAELKLHVN | not soluble |
| MGHHHHHHSHMANSMANSMIRNKVMEQSFIEYSLGKDASSAVLWVYPARKPRGKAIIMCPGGGFNQIASDHEGRDFAAWFNNQGITYAVLNYRMPHGDVEVIREDIREAIRLIRRQSAEWGIHQLGVMGASIGGYIAATAATLYTGTDRPDFQVLLYPVISMTDRLTHWPSRERMLGETISEGLKETLSLELHVTADTPPTFIVLAEDDQAVSPLNSIVYYTALLKHGVSAGLHIYPEGGHSFGFRDSFIYKELWTDELQKWLLTF | soluble |
| MAQTLAQTKQISQSHTFDVSQSHHKTPDDTNSHSVIYSTQNLDLWYGENHALQNINLDIYENQITAIIGPSGCGKSTYIKTLNRMVELVPSVKTAGKILYRDQDIFDQKYSKEQLRTNVGMVFQQPNPFPKSIYDNITYGPKIHGIKNKKVLDEIVEKSLRGAAIWDELKDRLHTNAYSLSGGQQQRVCIARCLAIEPEVILMDEPTSALDPISTLRVEELVQELKEKYTIIMVTHNMQQAARVSDKTAFFLNGYVNEYDDTDKIFSNPSNKKTEDYISGRFG | not soluble |
